For this data set, the system named is UbG-DsRx.

Take caspase-3: the “red fluorescence (DsRed) in live transgenic zebrafish embryos” value is “A control embryo (FIG. 1b) injected with a construct where the linker does not contain a cleavage site doesn't express any detectable red fluorescence (FIG. 1c)”.

For the origin of these results see patent publication US20060105953.
